Reference: FireProtDB (doi:10.1021/bi300982v)

B1: Cytochrome c-552, P04164 (parent)
chain: QADGAKIYAQCAGCHQQNGQGIPGAFPPLAGHVAEILAKEGGREYLILVLLYGLQGQIEVKGMKYNGVMSSFAQLKDEEIAAVLNHIATAWGDAKKVKGFKPFTAEEVKKLRAKKLTPQQVLAERKKLGLK

Variants of: B1
Conditions: Thermus thermophilus, pH 7, sodium phosphate 50 mM, transition: 2, reversible: yes, structure 1C52, whole UniProt chain shown; for denaturant midpoint (higher = more stable): 25 °C, GdnHCl; for Tm / change of melting temperature, mutant - wild type (higher = more stable) / heat capacity change of unfolding / unfolding enthalpy (calorimetric) / unfolding free energy: Thermal, CD

| Variant | denaturant midpoint (higher = more stable) (absorbance) | denaturant midpoint (higher = more stable) (far-UV-CD) | denaturant midpoint (higher = more stable) (heme-CD) | Tm | change of melting temperature, mutant - wild type (higher = more stable) | heat capacity change of unfolding | unfolding enthalpy (calorimetric) | unfolding free energy |
| --- | --- | --- | --- | --- | --- | --- | --- | --- |
| M69H | 3.7 M | 4 M | 3.3 M | 99 °C | 4 °C | 0.51 kcal/mol/K | 59.3 kcal/mol | 8.13 kcal/mol |
| M69A | 4.2 M | 4.7 M | 4.5 M | 93 °C | -2 °C | 0.29 kcal/mol/K | 28.2 kcal/mol | 2.39 kcal/mol |
